Measured values from patent US20250388703A1.
pKd: −log10 of the molar value.

Experiments:
[1] = molecular target: Human CD28-his (ACROBiosystems CD8-H52H3) (human) (UniProt P10747); test: column 'CD28 affinity (nM)'; assay not named on the sheet; BLI on human CD28-His per Example 1
[2] = molecular target: Human CD3 E/D dimer (heterodimeric construct of human CD3 epsilon and CD3 delta domains, ACROBiosystems CDD-H52Wa) (human) (UniProt P07766); test: column 'CD3 affinity (nM)'; assay not named on the sheet; BLI on human CD3 epsilon/delta-His per Example 1
Chain of Human CD3 E/D dimer (heterodimeric construct of human CD3 epsilon and CD3 delta domains, ACROBiosystems CDD-H52Wa) (human) (P07766 23-126 limits assumed, stated change not applied, chain 1 of 2): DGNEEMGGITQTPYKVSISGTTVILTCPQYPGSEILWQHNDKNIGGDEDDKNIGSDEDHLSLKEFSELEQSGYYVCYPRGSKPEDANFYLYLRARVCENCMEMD
Chain of Human CD3 E/D dimer (heterodimeric construct of human CD3 epsilon and CD3 delta domains, ACROBiosystems CDD-H52Wa) (human) (P04234 22-105 limits assumed, stated change not applied, chain 2 of 2, further chain): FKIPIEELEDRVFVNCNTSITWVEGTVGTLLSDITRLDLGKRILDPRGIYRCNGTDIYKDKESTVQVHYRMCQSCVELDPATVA

[3] = molecular target: Human CD3 E/D dimer (heterodimeric construct of human CD3 epsilon and CD3 delta domains, ACROBiosystems CDD-H52Wa) (human) (UniProt P07766); test: BLI, CD3E/D-His on anti-His probes, 1:1 fit
DLL3 (human) = DLL3 (human) (UniProt Q9NYJ7); test: not named on the sheet; Example 1 describes flow cytometry on CHO-K1 cells over-expressing DLL3
Chain of DLL3 (human) (Q9NYJ7 27-492 limits assumed): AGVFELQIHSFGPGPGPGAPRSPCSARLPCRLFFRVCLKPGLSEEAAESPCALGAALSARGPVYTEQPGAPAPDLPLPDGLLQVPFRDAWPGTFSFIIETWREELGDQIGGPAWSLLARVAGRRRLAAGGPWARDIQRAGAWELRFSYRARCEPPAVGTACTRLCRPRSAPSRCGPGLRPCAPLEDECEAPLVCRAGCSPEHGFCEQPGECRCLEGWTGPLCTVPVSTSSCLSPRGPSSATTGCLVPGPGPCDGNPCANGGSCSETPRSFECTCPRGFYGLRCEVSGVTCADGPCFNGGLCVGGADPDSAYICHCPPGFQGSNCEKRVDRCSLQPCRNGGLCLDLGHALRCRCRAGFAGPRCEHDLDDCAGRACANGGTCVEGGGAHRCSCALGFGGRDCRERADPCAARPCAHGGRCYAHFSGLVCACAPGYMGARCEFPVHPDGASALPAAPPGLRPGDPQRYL

pKd [1]	pKd [2]	Fold reduction in CD3 affinity compared to Tarlatamab [3] [fold]	pKd [3]	DLL3 affinity (DLL3 (human)) [nM]	Substance
8.36	7.64	–	–	–	328_BM (SAR443216)
–	8.52	1	8.70	0.2	AMG757 (Tarlatamab, BM) (bispecific antibody)
